Reference: the supplement of paper PMC6755084

B1: F1*; the commonest letter at each place (parent)
chain: GAGACCGCAACTGAAAAGTTGTTATCACTTGTCGTAAGACACTTTGGATGGGTTGAAGTTCTGCACGTAGAAGCAAAAGGC

Variants of: B1
Test: fraction ligated after 30 min (ligated reads / total reads); higher = more ligase activity
Conditions: with F1*sub RNA substrate (template-directed ligation), 42 °C
Summary of the method: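 Oligo-pool templates underwent PCR amplification, T7 transcription and gel purification to yield ribozyme variants. Gel-separated ligated and unligated bands were converted to complementary DNA with barcoded primers and sequenced on a MiSeq, keeping core bases of quality ≥20. The ratio of ligated reads to total reads gave the fraction ligated for every variant.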

Variant	fraction ligated
C40G T45A	0.688
C40G T45C	0.669
C40G T45G	0.0145
C42A T49G	0.789
C42A T49A	0.797
C42A T49C	0.727
C40G A48T	0.715
C40G A48C	0.768
C40G A48G	0.786
C42G A57G	0.807
C42G A57T	0.834
C42G A57C	0.818
C40G A41T	0.768
C40G A41G	0.807
C40G A41C	0.784
C40G T44A	0.841
C40G T44G	0.807
C40G T44C	0.775
A41C T45C	0.328
A41C T45A	0.55
A41C T45G	0.0888
C42A G46T	0.789
C42A G46A	0.821
C42A G46C	0.811

Variant	fraction ligated
A41G A48C	0.736
A41G A48G	0.76
A41G A48T	0.625
A41G C42A	0.85
A41G C42T	0.83
A41G C42G	0.803
A41G T43G	0.807
A41G T43A	0.817
A41G T43C	0.744
C40T C42G	0.857
C40T C42T	0.853
C40T C42A	0.845
C42A G50T	0.658
C42A G50C	0.239
C42A G50A	0.345
C42A T44C	0.834
C42A T44A	0.855
C42A T44G	0.805
C40T T45A	0.791
C40T T45G	0.195
C40T T45C	0.77
C42T A48T	0.796
C42T A48G	0.806
C42T A48C	0.779

Variant	fraction ligated
C40T A57G	0.839
C40T A57T	0.798
C40T A57C	0.823
A41T A57C	0.787
A41T A57G	0.807
A41T A57T	0.808
C40A C42T	0.818
C40A C42A	0.821
C40A C42G	0.803
A41T A56T	0.792
A41T A56C	0.784
A41T A56G	0.778
C40A G47C	0.25
C40A G47A	0.769
C40A G47T	0.341
C42T G46A	0.835
C42T G46T	0.805
C42T G46C	0.813
C40G G50A	0.262
C40G G50C	0.134
C40G G50T	0.548
C42T G47T	0.408
C42T G47C	0.11
C42T G47A	0.823

Variant	fraction ligated
C42G T49A	0.79
C42G T49G	0.777
C42G T49C	0.727
A41C	0.775
A41G	0.802
A41T	0.837
C42T G55C	0.797
C42T G55T	0.848
C42T G55A	0.844
C40A T45C	0.358
C40A T45G	0.0271
C40A T45A	0.66
A41C T49A	0.178
A41C T49G	0.209
A41C T49C	0.17
C42T A56G	0.821
C42T A56T	0.811
C42T A56C	0.797
C40G G47A	0.783
C40G G47C	0.147
C40G G47T	0.438
A41T G55T	0.81
A41T G55C	0.706
A41T G55A	0.809

Variant	fraction ligated
C40T G46T	0.792
C40T G46C	0.79
C40T G46A	0.809
C42G G47A	0.805
C42G G47T	0.68
C42G G47C	0.64
A41C C42A	0.844
A41C C42T	0.812
A41C C42G	0.826
A41C T43A	0.781
A41C T43G	0.76
A41C T43C	0.766
A41C T44G	0.797
A41C T44C	0.769
A41C T44A	0.764
C40G T43C	0.811
C40G T43G	0.819
C40G T43A	0.817
A41C A57C	0.767
A41C A57T	0.785
A41C A57G	0.773
C42G G50A	0.372
C42G G50C	0.27
C42G G50T	0.713

Variant	fraction ligated
C40G T49G	0.763
C40G T49C	0.365
C40G T49A	0.683
C40A A57T	0.792
C40A T44C	0.794
C40A T44A	0.823
C40A T44G	0.779
A41G A56C	0.755
A41G A56T	0.756
A41G A56G	0.764
A41T C42G	0.836
A41T C42A	0.849
A41T C42T	0.848
C40T G47A	0.798
C40T G47C	0.163
C40T G47T	0.197
C40G	0.816
C40T	0.833
A41G T45C	0.541
A41G T45G	0.119
A41G T45A	0.482
A41G G47A	0.734
A41G G47C	0.178
A41G G47T	0.354

Variant	fraction ligated
C42A G47T	0.704
C42A G47A	0.832
C42A G47C	0.695
C42G T43C	0.836
C42G T43A	0.856
C42G T43G	0.827
C40G C42T	0.8
C40G C42A	0.82
C40G C42G	0.826
C42G A48T	0.792
C42G A48C	0.765
C42G A48G	0.821
C40T A56G	0.801
C40T A56C	0.773
C40T A56T	0.799
A41T G46A	0.804
A41T G46T	0.787
A41T G46C	0.792
T43A A48T	0.774
T43A A48G	0.807
T43A A48C	0.734
A41G G55C	0.663
A41G G55T	0.754
A41G G55A	0.785

Variant	fraction ligated
A41C G50A	0.28
A41C G50C	0.168
A41C G50T	0.597
A41T G50T	0.715
A41T G50A	0.342
A41T G50C	0.268
C40T T49C	0.38
C40T T49A	0.792
C40T T49G	0.812
C42A A48T	0.803
C42A A48C	0.761
C42A A48G	0.785
C40A T49G	0.674
C40A T49A	0.517
C40A T49C	0.116
C40T A41T	0.822
C40T A41C	0.78
C40T A41G	0.765
A41C G46T	0.676
A41C G46A	0.764
A41C G46C	0.639
T43A A57T	0.833
T43A A57C	0.792
T43A A57G	0.793

Variant	fraction ligated
C40T T44G	0.825
C40T T44A	0.831
C40T T44C	0.829
C42T G50A	0.634
C42T G50C	0.497
C42T G50T	0.808
C40T G50A	0.567
C40T G50C	0.357
C40T G50T	0.784
C42T A57C	0.812
C42T A57T	0.847
C42T A57G	0.812
C42G G55C	0.758
C42G G55A	0.853
C42G G55T	0.809
C40T A48C	0.763
C40T A48T	0.798
C40T A48G	0.784
C40A G46T	0.792
C40A G46C	0.817
C40A G46A	0.819
C40G A56T	0.805
C40G A56G	0.766
C40G A56C	0.784

Variant	fraction ligated
T43A A56T	0.81
T43A A56G	0.782
T43A A56C	0.79
C42A T43G	0.805
C42A T43C	0.825
C42A T43A	0.82
A41C A48G	0.783
A41C A48T	0.736
A41C A48C	0.571
A41G T49A	0.671
A41G T49C	0.564
A41G T49G	0.739
C40T T43C	0.795
C40T T43A	0.819
C40T T43G	0.782
C40G G46A	0.825
C40G G46T	0.793
C40G G46C	0.801
C42T T43A	0.866
C42T T43G	0.818
C42T T43C	0.828
C42A T45G	0.282
C42A T45C	0.778
C42A T45A	0.766

Variant	fraction ligated
A41T T45G	0.283
A41T T45C	0.428
A41T T45A	0.741
C42G A56G	0.792
C42G A56C	0.801
C42G A56T	0.797
A41C A56T	0.615
A41C A56G	0.561
A41C A56C	0.503
C40A T43A	0.856
C40A T43C	0.768
C40A T43G	0.801
T43A	0.855
C40T G55C	0.782
C40T G55A	0.841
C40T G55T	0.816
A41G A57C	0.735
A41G A57G	0.787
A41G A57T	0.76
T43A G46C	0.789
T43A G46A	0.789
T43A G46T	0.81
C42A G55A	0.837
C42A G55C	0.746

Variant	fraction ligated
C42A G55T	0.814
C42T T45A	0.799
C42T T45C	0.79
C42T T45G	0.557
A41T T43C	0.773
A41T T43G	0.803
A41T T43A	0.822
A41G G46T	0.767
A41G G46A	0.791
A41G G46C	0.768
A41C G47T	0.157
A41C G47C	0.177
A41C G47A	0.228
C42T T49A	0.791
C42T T49C	0.774
C42T T49G	0.782
C40A G55A	0.807
C40A G55T	0.787
C40A G55C	0.504
C42G G46C	0.816
C42G G46T	0.793
C42G G46A	0.808
C42G T44C	0.851
C42G T44G	0.841

Variant	fraction ligated
C42G T44A	0.851
A41C G55T	0.751
A41C G55A	0.804
A41C G55C	0.329
C40G G55T	0.794
C40G G55A	0.808
C40G G55C	0.659
A41T A48C	0.73
A41T A48G	0.762
A41T A48T	0.345
C42T	0.856
C42G	0.854
C42A	0.84
C42G T45C	0.756
C42G T45G	0.291
C42G T45A	0.796
A41G G50T	0.609
A41G G50C	0.119
A41G G50A	0.23
A41T T49C	0.658
A41T T49A	0.686
A41T T49G	0.749
A41T T44A	0.815
A41T T44G	0.8

Variant	fraction ligated
A41T T44C	0.806
A41G T44A	0.796
A41G T44G	0.809
A41G T44C	0.76
C42A A56T	0.798
C42A A56G	0.781
C42A A56C	0.794
C40G A57C	0.788
C40G A57T	0.79
C40G A57G	0.8
C40A G50A	0.212
C40A G50T	0.488
C40A G50C	0.123
A41T G47A	0.783
A41T G47T	0.418
A41T G47C	0.211
C42A A57C	0.797
C42A A57T	0.848
C42A A57G	0.794
C42T T44C	0.855
C42T T44A	0.862
C42T T44G	0.833
